Data from a protein production outcome set (Wang et al. 2014).

Assay: label from the status in PepcDB records

For “MDLLLFSDVHGDREACQRLVDRAADVDVVVGAGDFCVARRNLQAPIETLSAIDTPTVLVPGNAETEDELEAQIDAAGWGAAHVLHGGGTTIDGTPFFGLGGGVPVTPFGPWSYDLTEDEARTLLSDCPEGAVLVAHSPPKDAVDRDSKGQSLGSVAVREAIEAHTPRLTVCGHIHGSWEETAHVGPTPVHNAGPHGRIWTLSEADGA”, the protein production was “failed”.
In the case of “MFSFVQMTGCLLPLTALTPLSHCTRPRNALALLQSSWKGGSLAISLVRNAVAAVLAAALSVPVSADVGAGSYLAARQAVFANDFSSAADYFARALAIDPQNPALMENMVLSQLALGRLEQAYPVAQLMQEAGLQSQVANIAIVVHLLSEERYQEVLDRDPEMRGVGKLVDGLVAGWAEMGLGSVARALAQFDKVADEAGLRGFANYHKAMALASVGDFEGAEALFAADDGALTTISRRAALARAEILSQLDRNDQALEMLADVFSGGFDPALSDIADRLVAGETLPFSLVRSVRDGLAEVFFTIGAALNGEASDDFTLVYIRSAVHLRPDHIDALLMTAGLLESLGQYDLAVATYKQIPNDSPDYHAAELGRAEALRRSAKPDAAIEVLEKLAKDYPSQPQAFVALGDLQRQQEAYDRAATAYDKALQLTDPGAPNMWFLHYARGICHERLGNWPGAEADFRAALELNPDQPQVLNYLGYSLVEKQEKLDEALDLIERAVAARPDSGYIVDSLGWVLFRLGRYDEAVGHMERAVELMPVDPVVNDHLGDVLWAVGRVREAEFQWRRALSFIKADDTDGEADPERIRRKLEIGLDRVLAEEGVPPLKVANGD”, the protein production is reported as “failed”.
In the case of “MIFYKSKRLAFFLTSDIVLILLSVYLAFSLRFSGDIPSIFYHGMMVSAIILLVLKLSFLFVFRIYKVAWRFFSLNEARKIFIALLLAEFCFFLIFYFFSDFFNPFPRSAIVIDFVLSYMFIGTLRISKRMLVDFKPSRMKEEETPCIVVGATSKALHLLKGAKEGSLGLFPVGVVDARKELIGTYCDKFIVEEKEKIKSYVEQGVKTAIIALRLEQEELKKLFEELVAYGICDVKIFSFTRNEARDISIEDLLARKPKDLDDSAVAAFLKDKVVLVSGAGGTIGSELCKQCIKFGAKHLIMVDHSEYNLYKINDDLNLYKEKITPILLSILDKQSLDEVLKTYKPELILHAAAYKHVPLCEQNPHSAVINNILGTKILCDSAKENKVAKFVMISTDKAVRPTNIMGCTKRVCELYTLSMSDENFEVACVRFGNVLGSSGSVIPKFKAQIANNEPLTLTHPDIVRYFMLVAEAVQLVLQAGAIAKGGELFVLDMGKPVKIIDLAKKMLLLSNRNDLEIKITGLRKGEKLYEELLIDENDAKTQYESIFVAKNEKVDLDWLNKEIENLQICEDISEALLKIVPEFKHNKEGV”, the protein production is reported as “failed”.
With “MLLKPDQRLKLDDTDDNLFYAYPRFVTHVDEGFIQRLTDLYRERLQPNTRILDMMSSWVSHLPEEIKFAHVEGHGLNAEELKRNPRLNHYFVQNLNENPGLPLPDQEFDAVLNCVSVQYLQYPEAVFSEIHRILKPGGVAIISFSNRMFYQKAIQAWRDASEPGRLELVKRYFASVPGFSTPEIIARKSTAPNFLQWLGAPGGDPFYAAIAHRKLEHHHHHH” the protein production was “failed”.
With “MTRHNEIIKCAEKYQLHIQPQTISLNESGLDFQVAFGKDKHGVEWVLRLPRRPDVYKRTKPEKQTVDFLQKNVSFEIPKWKVHAKDLIAYPKLTGKPAATIDPEIQNYVWEIEHKPLPENFINTLAETLVDLHNIPEENINVQHINIKTIQEIKNDFQRRMNKVKETYGVSDELWNRWKQWLENDELWPRHATMIHGDLHPGHIMVDNQANVTGLIDWTEATHSDPSMDFIGHHRVFDDEGLEQLITAYGKAGGEIWPRMKEHIIELNAVFPMFIAEFAMESGESAYETMALKELGMKE” the protein production was “failed”.
In the case of “TGGLAIIQSMKHKLPPSERKLADYILAHPHKAIESTVNEISALANSSDAAVIRLCKSLGLKGFQDLKMRVAGDLAKPTFQGYRDIVPHEPLPSISEKTAGNAIQAI”, the protein production is reported as “failed”.
In the case of “MNNIAAIVVTYNRKKLLKKCIKGLKEQTEKADIIIIDNMSTDGTLEMLQPLINSNEIIYHSTGKNIGGAGGFYEGIKLAYEMGYKYFWLMDDDCIPTSSALEKLMNVVNEKKNFGFLVSKALWKDGEVCKMNIPKIKLTKQVNDFSKKVIQIKMGTFVSFLTSREVVEKVGLPIKEFFIWGDDLEYSQRISQKFPSYLVTNSLVYHETKLNEGSNIALDSVDRLKRYKLAYRNEVVLFKEMGLQGQMYQYFRLVLHCGRILFKSKDHKKERLNIIFQGTRAGYNFHPVIKNIK”, the protein production is reported as “failed”.
For “MSDATNNAVLVRNLSPEVTKQTLLDFFSFCGEISAVKIRPSVGEGGSSSSGSPTEAMEALVIFENQSAKKTALVLDSATLKKRKISVMDATEELVSSFKDVREVDLARDSTDVPETATARQERLQGLREEFDRAIKRASDKLSDFNEKHRITEKVQEFGDLTKRKTQEINEQYRLTERAREGWQTVREKTRELDERLHLSESARDGWRSLKASVSKIMQKDRGGEVDKA”, the protein production was “not failed”.
